From patent US12624096B2, “Anti-tau antibodies and methods of use thereof” (GTInvent Limited, priority 2020, dated 2026) come the findings set out here.

One data set addresses dGAE (Homo sapiens, UniProt P10636). The experiment in a line: Biacore X100 SPR, scAb captured via anti-HuCk, dGAE as analyte. Format: binding. The following applies: dissociation rate. The method, then:
Surface plasmon resonance (SPR) is widely regarded as the gold standard for real time measurement of protein-protein interactions such as antibody binding. All SPR experiments were carried out using a Biacore X100 machine and HBS EP+ running buffer (GE Healthcare). A ‘capture’ method was followed for affinity measurements, where an anti-human constant kappa chain (HuCk) antibody was conjugated to the surface of a CM5 sensor chip using an amine coupling kit and scAb molecules were immobilised via their HuCk domain. Amine coupling is a very common approach for immobilising the ligand to the chip surface. The chip surface has a dextran matrix derivatised with carboxyl groups, which after activation with N-hydroxysuccinimide (NHS) and 1-ethyl-3-(3-dimethylaminopropyl) carbodiimide (EDC), form reactive succinimide esters which allows the covalent capturing of the ligand via any available primary amine groups (e.g. Lysine) on the ligand (in this case anti-HuCk antibody). The capture antibody was diluted 1/100 in 10 mM Sodium acetate buffer pH 5.0 and passed over the activated chip surface for a period of at least 420 s. […]
The single cycle kinetics protocol was similar and utilised the same level of scAb capture. […] Binding responses were analysed in Biacore X100 evaluation software and data fitted to a 1:1 binding model to obtain kinetic and affinity characterisation.

Data set [1] has as its system hT40, dGA, dGAE and truncated tau fragments/peptides. The experiment in a line: Binding ELISA for epitope mapping with truncated tau proteins and biotinylated 13mer peptides. More on the design: species or system human. The settings on record: direct binding ELISA. Here is the method:
A series of binding ELISA was performed using various truncated versions of the tau protein and 13mer peptide libraries spanning the entire hT40 molecule for mapping the epitopes of anti-tau scAbs (Full list of protein antigens used is given in Table 14). In general, ELISA plates were coated with 1 μg/ml hT40 or dGA or dGAE or other truncated versions of the protein and in the case of biotinylated peptides, plates were coated with 5 μg/ml Streptavidin followed by 1 μg/ml biotinylated peptide. The plates were blocked with 2% MPBS and scAb samples added at desired starting concentrations and double diluted across the plate. Binding was detected using anti-Human C Kappa HRP conjugated secondary antibody and the resulting immunoreaction was developed and absorbance values measured as described above.
Similarly, dGA binding ‘NS’, ‘S’ and ‘M’ group scAbs were subjected to further antigen binding ELISA using shorter tau proteins and biotinylated 13mer peptides as shown below (FIGS. 10A-F) and (FIGS. 11A-R).
For anti-tau mAb SPR measurements (Biacore X100™) and epitope mapping, the same methodologies described above (see Example 16) were followed.

The target in another data set is aggregated dGAE (Homo sapiens, UniProt P10636). The experiment in a line: Capture ELISA ranking of mAbs on dGAE aggregates. Format: binding. The following applies: 1 μg/ml capture mAb, 800 nM aggregated dGAE. The method, then: The aggregation cascade of natively unfolded tau into insoluble filaments is a defining pathological feature of AD. Therefore, it is logical to target aggregated tau filaments for both therapeutic and diagnostic purposes. The following experiment was performed to assess the ability of our dGA mAb panel to bind aggregated dGAE using a capture ELISA method. Aggregates were prepared by incubating 100 μM dGAE and 10 mM dTT for 24 h at 37° C. with shaking at 700 RPM. The following day, dGAE aggregates were centrifuged at 17,000×g for 20 min and the supernatant was removed. The remaining pellet was washed with 10 mM phosphate buffer and centrifuged as above. Washing was repeated a further two times to remove any remaining dGAE monomer. The dGAE pellet was resuspended in 100 μl of 10 mM phosphate buffer. (Using a separate capture ELISA based quantification, we have worked out the efficiency of our dGAE aggregation as 80%)
For assessing the mAb panel for aggregate binding, designated rows of a maxisorp plate were coated with 1 μg/ml of each of the capture mAbs (S1D12, S1G2, CA4, NS2A1, CE2, E2E8 and CB7) and blocked as before. Following washing, 800 nM aggregated dGAE was added to the designated wells, double diluted across the plate and incubated for 1 h at RT. The plate was washed again and 1 μg/ml S1G2 scAb was added as detection antibody and incubated for 1 h at RT. To the row where S1G2 mAb was used for capture, […] s1D12 scAb was added as […] instead of S1G2. The assay was developed using HRP labelled HuCK as described previously.

Data set [2] concerns the target T1, hT40 (Homo sapiens, UniProt P10636). The data set is described as follows: Biacore X100 SPR, scAb captured via anti-HuCk, hT40 as analyte. Format: binding. The settings on record: scAb. In outline:
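Captured scAb on anti-HuCk CM5 surface (flow cell 1 as reference) in HBS-EP+, capture set for theoretical RMax 100 RU; hT40 injected multi-cycle (0.15625–100 nM) or single-cycle (6.25–100 nM), 120 s association, 420 s dissociation, glycine pH 2.0 regeneration. Kinetics and affinity from 1:1 binding model fit.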

Data set [3] concerns the target T1, hT40. The experiment in a line: Sandwich ELISA, limits of detection (LoD) of antibody pairs. Format: binding. The following applies: S1D12 mAb capture, detection scAb. The method, then: Full length tau (hT40), at 1 μg/ml starting concentration was added to designated wells and double diluted across rest of the plates and left to incubate at R/T for 1 h. A series of detection scAbs with varying epitope recognition properties were added at 10 μg/ml to designated wells (FIG. 22). For colourimetric detection HRP conjugated anti-HuCk secondary antibody was used and the resulting immunoreaction was developed and absorbance at 450 nm measured as described previously. Cut-off point for a positive binding event was an absorbance value of 0.3 following background subtraction. In order to enhance the assay sensitivity, a chemiluminescent detection method was adopted where 50 μL SuperSignal ELISA Femto Substrate (Thermo Scientific) was added to each well following incubation with anti-HuCK HRP antibody and subsequent washing. The luminescence was read using Clariostar Plus microplate reader. A further modification to this protocol was done where various detection scAbs were directly conjugated with HRP and detected using chemiluminescent protocol as before. The lowest levels of detection achieved using different detection scAbs and a comparison of colourimetric and chemiluminescent methods of detection are shown in Table 28
The assay was conducted using chemiluminescent protocol described above.

T1 sequence (P10636 1-441 isoform P10636-8): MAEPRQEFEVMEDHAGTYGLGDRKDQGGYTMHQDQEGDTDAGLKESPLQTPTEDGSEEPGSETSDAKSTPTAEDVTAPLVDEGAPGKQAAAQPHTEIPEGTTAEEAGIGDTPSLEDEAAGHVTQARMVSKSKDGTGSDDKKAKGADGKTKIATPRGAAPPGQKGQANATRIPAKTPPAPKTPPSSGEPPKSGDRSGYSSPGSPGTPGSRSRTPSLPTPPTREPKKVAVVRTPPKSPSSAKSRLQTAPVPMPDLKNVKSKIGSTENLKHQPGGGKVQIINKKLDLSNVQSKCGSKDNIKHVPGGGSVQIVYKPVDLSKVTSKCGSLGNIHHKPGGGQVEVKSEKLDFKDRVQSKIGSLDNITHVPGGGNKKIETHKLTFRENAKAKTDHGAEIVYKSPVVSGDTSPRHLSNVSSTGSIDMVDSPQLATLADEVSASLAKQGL
aggregated dGAE, sequence (P10636 614-708): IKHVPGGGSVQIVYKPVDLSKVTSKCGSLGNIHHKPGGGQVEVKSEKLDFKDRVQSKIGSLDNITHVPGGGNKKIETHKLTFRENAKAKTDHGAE
dGAE, sequence (P10636 614-708): as above

B1: E1E8: anti-tau clone, SEQ ID NO: 250 (protein)
scFv: QVQLQESGPSLVKPSQTLSLTCTVSGFSLTDWGVAWVRQAPGKALEWLGTMRSGGTTDDNPALKSRLSITRDTSKSQVSLSLSSVTTEDMAMYYCARGYLSGVHYAWGRGLLVTVSSEGKSSGASGESKVDDQAVLTQPSSVSGSLGQSVSITCSGSSSNVGDGRYVSWFQQVPGSAPKLLIYDTTSRASGVPDRFSGSRSGNTATLIITSLQAEDEADYYCASIDSGNNLLFGSGTRLTVLG
modifications: E1E8 amino acid sequence
On to B1, for which, in the data set with dGAE, the “Kd” value came out at 0.0014 s⁻¹. In data set [1], the “cross-reactivity of 'E' group scAbs using hT40, dGA and dGAE antigens” value is given as “specific dGAE binding”.

B2: S1G2 mAb: S1G2 reformatted as mAb, SEQ ID NO: 457 and 458 (antibody)
heavy: QVQLQESGPSLVKPSQTLSLTCTVSGFSLTSNSVGWVRQAPGKAPEWVAGIDTDGEEGYNPALNSRLSITRDTSKSQVSLSLSSVTSEDTAVYYCGRSYRADGLAYGYVQAIDYWGPGLLVTVSSAKTTAPSVYPLAPVCGDTTGSSVTLGCLVKGYFPEPVTLTWNSGSLSSGVHTFPAVLQSDLYTLSSSVTVTSSTWPSQSITCNVAHPASSTKVDKKIEPRGPTIKPCPPCKCPAPNLLGGPSVFIFPPKIKDVLMISLSPIVTCVVVDVSEDDPDVQISWFVNNVEVHTAQTQTHREDYNSTLRVVSALPIQHQDWMSGKEFKCKVNNKDLPAPIERTISKPKGSVRAPQVYVLPPPEEEMTKKQVTLTCMVTDFMPEDIYVEWTNNGKTELNYKNTEPVLDSDGSYFMYSKLRVEKKNWVERNSYSCSVVHEGLHNHHTTKSFSRTPGK
light: QAVVTQPSSVSGSLGQRVSITCSGSFIGISSVGWFQQLPGSGLRTIIVASDGRPSGVPDRFSMSKSGNTATLTISSLQAEDEADYFCGSSDRTPYTGVFGSGTRLTVLGGQPKSSPSVTLFPPSSEELETNKATLVCTITDFYPGVVTVDWKVDGTPVTQGMETTQPSKQSNNKYMASSYLTLTARAWERHSSYSCQVTHEGHTVEKSLSRADCS
modifications: S1G2 mAB Heavy Chain; S1G2 mAB Light Chain
Consider B2, for which the “ability to capture aggregated dGAE” value with aggregated dGAE is “most efficient at capturing aggregated dGAE”.

B3: E2E8: anti-tau clone, SEQ ID NO: 248 (protein)
scFv: QVQLQESGPSLVKPSQTLSLTCTVSGFSLTDRGVAWVRQAPGKALEWVGTMRSGGTIDYNPALKSRLSITRDTSKSQVFLSLSSVTTEDMAMYYCARGYLSGDRYAWGRGLLVTVSSEGKSSGASGESKVDDQAVLTQPSSVSKSLGQSVSIACSGSRSDIGYGNYVSWFQQIPGSAPKLLIYDTNTRASGVPDRFSGARSGNTATLTINSLQAEDEADYYCANIDSSRSHLFGSGTRLTVLG
modifications: E2E8 amino acid sequence
Turning to B3, in the data set with hT40 [2] (Table 23), the “T441 binding (in words)” value was “No T441 binding”. The “hT40 binding (in words)” value in the data set with hT40 [2] (Table 26 summary) is on record as “No hT40 binding”. Besides, the “Kd” value with dGAE turned out to be 0.0001915 s⁻¹. Moreover, the “cross-reactivity of 'E' group scAbs using hT40, dGA and dGAE antigens” value in data set [1] was “specific dGAE binding”.

B4: E2E8 mAb: E2E8 reformatted as mAb, SEQ ID NO: 493 and 494 (antibody)
heavy: QVQLQESGPSLVKPSQTLSLTCTVSGFSLTDRGVAWVRQAPGKALEWVGTMRSGGTIDYNPALKSRLSITRDTSKSQVFLSLSSVTTEDMAMYYCARGYLSGDRYAWGRGLLVTVSSAKTTAPSVYPLAPVCGDTTGSSVTLGCLVKGYFPEPVTLTWNSGSLSSGVHTFPAVLQSDLYTLSSSVTVTSSTWPSQSITCNVAHPASSTKVDKKIEPRGPTIKPCPPCKCPAPNLLGGPSVFIFPPKIKDVLMISLSPIVTCVVVDVSEDDPDVQISWFVNNVEVHTAQTQTHREDYNSTLRVVSALPIQHQDWMSGKEFKCKVNNKDLPAPIERTISKPKGSVRAPQVYVLPPPEEEMTKKQVTLTCMVTDFMPEDIYVEWTNNGKTELNYKNTEPVLDSDGSYFMYSKLRVEKKNWVERNSYSCSVVHEGLHNHHTTKSFSRTPGK
light: QAVLTQPSSVSKSLGQSVSIACSGSRSDIGYGNYVSWFQQIPGSAPKLLIYDTNTRASGVPDRFSGARSGNTATLTINSLQAEDEADYYCANIDSSRSHLFGSGTRLTVLGGQPKSSPSVTLFPPSSEELETNKATLVCTITDFYPGVVTVDWKVDGTPVTQGMETTQPSKQSNNKYMASSYLTLTARAWERHSSYSCQVTHEGHTVEKSLSRADCS
modifications: E2E8 mAB Heavy Chain; E2E8 mAB Light Chain
As to B4, the “ability to capture aggregated dGAE” value in the data set with aggregated dGAE is “most efficient at capturing aggregated dGAE”.

B5: CA2: anti-tau clone, SEQ ID NO: 363 (protein)
scFv: QVQLQESGPSLVKPSQTLSLTCTVSGFSLSSVAVNWVRQAPGKVPEWLGGIISNGGTGYNPALKSRLSITRDTSKSQVSLALTHVTTEDTAVYYCGRGVEWEGSMDYLGPGLLVTVSSEGKSSGSGSETKVDDQSVLTQPSSVSGFLGQRVTITCSGSSSNVGAGSYVGWYQQVPGSGLRILIYGATKRASGLPDRFSGSRSGNTATLTISSLQAEDEADYYCVSYQTDFTLVFGSGTRLTVLG
modifications: CA2 amino acid sequence
In the data set with hT40 [3], B5 showed a LoD chemiluminescence detection of 0.37 ng/mL and a LoD colourimetric detection of 6 ng/mL.
